Measurements as given in patent US20220281976A1 (Alector, published 2022).
Where a chain is given by its changes, count along the chain named.

T1: mouse CD33 Fc fusion protein (mouse, UniProt Q63994 18-240, limits assumed)
T1 construct: also called mCD33-Fc
T1 sequence: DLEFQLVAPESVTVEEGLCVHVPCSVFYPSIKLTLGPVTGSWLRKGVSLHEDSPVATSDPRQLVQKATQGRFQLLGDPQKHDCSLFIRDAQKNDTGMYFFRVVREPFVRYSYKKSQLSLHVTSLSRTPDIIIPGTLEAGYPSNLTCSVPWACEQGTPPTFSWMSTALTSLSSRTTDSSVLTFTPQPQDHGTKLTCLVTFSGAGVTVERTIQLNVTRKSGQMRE

B1: C-3 (antibody, V domains shown)
VH: QVQLVQSGAEVKKPGSSVKVSCKASGGTFSNYAISWVRQAPGQGLEWMGGIIPIFGTANYAQKFQGRVTITADESTSTAYMELSSLRSEDTAVYYCARDTGTYVTGDGMDVWGQGTTVTVSS
VL: EIVMTQSPATLSVSPGERATLSCRASQSVSSNLAWYQQKPGQAPRLLIYGASTRATGIPARFSGSGSGTEFTLTISSLQSEDFAVYYCQQYDVWPITFGGGTKVEIK
notes: human IgG1
B2: C-11 (antibody, V domains shown)
VH: B1 VH
VL: B1 VL with G50S, D92I, W94L
notes: human IgG1
B3: C-10 (antibody, V domains shown)
VH: B1 VH
VL: B1 VL with D92V, V93N, W94L
notes: human IgG1
B4: C-12 (antibody, V domains shown)
VH: EVQLLESGGGLVQPGGSLRLSCAASGFTFSNYAMSWVRQAPGKGLEWVSAISGSGGSTYYADSVKGRFTISRDNSKNTLYLQMNSLRAEDTAVYYCARDGSRYSYGLVAYGMDVWGQGTTVTVSS
VL: EIVLTQSPGTLSLSPGERATLSCRASQSVSSSFLAWYQQKPGQAPRLLIYGASSRATGIPDRFSGSGSGTDFTLTISRLEPEDFAVYYCQQSQLRPTFGGGTKVEIK
notes: human IgG1
B5: C-14 (antibody, V domains shown)
VH: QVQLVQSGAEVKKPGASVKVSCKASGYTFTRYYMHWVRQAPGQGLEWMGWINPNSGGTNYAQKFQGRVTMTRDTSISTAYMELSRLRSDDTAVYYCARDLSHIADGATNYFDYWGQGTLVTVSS
VL: DIQMTQSPSSVSASVGDRVTITCRASQGISSWLAWYQQKPGKAPKLLIYAASSLQSGVPSRFSGSGSGTDFTLTISSLQPEDFATYYCQQANYFPTFGGGTKVEIK
notes: human IgG1
B6: C-15 (antibody, V domains shown)
VH: QVQLVESGGGVVQPGRSLRLSCAASGFTFSSYGMHWVRQAPGKGLEWVAVIWYDGSNKYYADSVKGRFTISRDNSKNTLYLQMNSLRAEDTAVYYCAKGVGYDTGTDMDVWGKGTTVTVSS
VL: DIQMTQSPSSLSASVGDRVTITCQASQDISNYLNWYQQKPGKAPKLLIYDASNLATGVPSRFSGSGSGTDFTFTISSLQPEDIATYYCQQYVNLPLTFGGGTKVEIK
notes: human IgG1
B7: C-20 (antibody, V domains shown)
VH: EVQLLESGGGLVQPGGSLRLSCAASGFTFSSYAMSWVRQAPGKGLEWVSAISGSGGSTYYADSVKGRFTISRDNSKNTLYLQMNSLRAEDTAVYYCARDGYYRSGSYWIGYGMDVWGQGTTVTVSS
VL: EIVLTQSPGTLSLSPGERATLSCRASQSVSSSFLAWYQQKPGQAPRLLIYGASSRATGIPDRFSGSGSGTDFTLTISRLEPEDFAVYYCQQVDSYPPTFGGGTKVEIK
notes: human IgG1
B8: C-16 (antibody, V domains shown)
VH: EVQLVESGGGLVQPGGSLRLSCAASGFTFSSYWMSWVRQAPGKGLEWVANINQDGSEKYYVDSVKGRFTISRDNAKNSLYLQMNSLRAEDTAVYYCAREGSDRHPFDYWGQGTLVTVSS
VL: DIQMTQSPSSLSASVGDRVTITCRASQSISSYLNWYQQKPGKAPKLLIYAASSLQSGVPSRFSGSGSGTDFTLTISSLQPEDFATYYCQQAYLVPLTFGGGTKVEIK
notes: human IgG1
B9: C-23 (antibody, V domains shown)
VH: QVQLQESGPGLVKPSETLSLTCAVSGYSISSGYYWGWIRQPPGKGLEWIGTIYHSGSTYYNPSLKSRVTISVDTSKNQFSLKLSSVTAADTAVYYCAREVGVVGALPYFDYWGQGTLVTVSS
VL: B8 VL with A50G, Y92S, L93S, V94S, L96P
notes: human IgG1
B10: C-25 (antibody, V domains shown)
VH: EVQLVESGGGLVQPGGSLRLSCAASGFTFSSYWMSWVRQAPGKGLEWVANIKSDGSEKYYVDSVKGRFTISRDNAKNSLYLQMNSLRAEDTAVYYCAREGFRDGINWFDPWGQGTLVTVSS
VL: B8 VL with S31R, A91Q, Y92F, V94T, L96I
notes: human IgG1
B11: C-22 (antibody, V domains shown)
VH: QVQLQESGPGLVKPSETLSLTCAVSGYSISSGYYWGWIRQPPGKGLEWIGSIYHSGNTYYNPSLKSRVTISVDTSKNQFSLKLSSVTAADTAVYYCARDGRYSSSGELYYGMDVWGQGTTVTVSS
VL: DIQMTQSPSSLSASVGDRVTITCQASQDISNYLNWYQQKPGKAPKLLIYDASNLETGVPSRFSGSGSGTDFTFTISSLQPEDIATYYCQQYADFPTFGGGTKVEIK
notes: human IgG1
B12: C-26 (antibody, V domains shown)
VH: QLQLQESGPGLVKPSETLSLTCTVSGGSISSNSYYWGWIRQPPGKGLEWIGSIYYSGSTYYNPSLKSRVTISVDTSKNQFSLKLSSVTAADTAVYYCARSPVYYDSSGYFQYYGMDVWGQGTTVTVSS
VL: EIVLTQSPATLSLSPGERATLSCRASQSVSSYLAWYQQKPGQAPRLLIYDASKRATGIPARFSGSGSGTDFTLTISSLEPEDFAVYYCQQSIVWPPFTFGGGTKVEIK
notes: human IgG1

Each binder was assayed against T2, human CD33 (human, UniProt P20138 18-364) (assay: flow cytometry, human primary monocytes;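 also: binding of anti-CD33 antibodies at 10 ug/ml to human primary monocytes, 1 h on ice, detected by PE-labelled secondary antibody, flow cytometry readout as mean fluorescence intensity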).
T2 construct: CD33 on human primary dendritic cells, macrophages, monocytes and T cells and on CHO cells expressing recombinant human CD33; also called Siglec-3; hCD33
Parameters: reference not given here

T2 sequence (P20138 18-364): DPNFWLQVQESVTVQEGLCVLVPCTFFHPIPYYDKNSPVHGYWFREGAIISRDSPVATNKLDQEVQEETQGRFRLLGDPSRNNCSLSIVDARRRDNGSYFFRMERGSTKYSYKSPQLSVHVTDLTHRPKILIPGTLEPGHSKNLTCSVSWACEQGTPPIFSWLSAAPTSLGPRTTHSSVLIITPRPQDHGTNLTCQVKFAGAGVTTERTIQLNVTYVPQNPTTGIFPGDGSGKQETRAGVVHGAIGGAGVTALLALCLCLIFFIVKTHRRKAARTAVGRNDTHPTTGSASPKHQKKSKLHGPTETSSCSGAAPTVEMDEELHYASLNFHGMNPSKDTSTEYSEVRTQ

Binder | Monocyte MFI
B1 | 109
B2 | 106
B3 | 107
B4 | 208
B5 | 178
B6 | 191
B7 | 196
B8 | 133
B9 | 128
B10 | 139
B11 | 188
B12 | 188

What follows are binders tested against T2, human CD33 (assay: cell-based or functional assay).

Binder | Percent CD33 Surface Expression, DC % CD33 | Percent CD33 Surface Expression, Macrophage % CD33 | Percent CD33 Surface Expression, Monocyte % CD33
B1 | 27.9% | 63.5% | 29.1%
B2 | 23.3% | 64.3% | 41.3%
B3 | 19.5% | 44.5% | 31.5%
B4 | 23.6% | 68.5% | 54.2%
B5 | 63.1% | 97.4% | 101%
B6 | 17% | 42% | 32.6%
B7 | 30.2% | 54.3% | 53.9%
B8 | 19.5% | 62.6% | 42.4%
B9 | 69.5% |  | 71.3%
B10 | 22.3% | 41.9% | 35.4%
B11 | 17% | 44% | 40.7%
B12 | 18.8% | 45.1% | 33%

These binders were tested against T3, human CD33 Fc fusion protein (human, UniProt P20138 18-259) (assay: ForteBio BLI or MSD-SET, IgG, avid;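 also: Anti-CD33 IgG affinity by BLI, IgG captured on AHQ sensors with antigen in solution and a one-to-one kinetic fit, or by MSD solution equilibrium titration with quadratic fit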).
T3 construct: also called hCD33-Fc; human CD33/Fc chimera (R&D Systems)
T3 sequence (P20138 18-259 limits assumed): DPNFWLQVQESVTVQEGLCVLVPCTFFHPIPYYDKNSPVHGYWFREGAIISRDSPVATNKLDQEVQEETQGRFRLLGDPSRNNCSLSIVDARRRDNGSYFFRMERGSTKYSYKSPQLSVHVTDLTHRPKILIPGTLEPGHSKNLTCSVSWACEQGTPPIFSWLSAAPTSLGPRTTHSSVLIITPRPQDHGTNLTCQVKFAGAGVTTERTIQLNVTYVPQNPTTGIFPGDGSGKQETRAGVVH
Procedure: The binding affinity of each anti-CD33 antibody was determined by measuring their KD by ForteBio or MSD-SET. […] Briefly, ForteBio affinity measurements were performed by loading IgGs on-line onto AHQ sensors. Sensors were equilibrated off-line in assay buffer for 30 min and then monitored on-line for 60 seconds for baseline establishment. Sensors with loaded IgGs were exposed to 100 nM antigen for 5 minutes, then transferred to assay buffer for 5 min for off-rate measurement. Kinetics were analyzed using the 1:1 binding model.
Solution equilibrium titrations (SET) were performed in PBS+0.1% IgG-Free BSA (PBSF) with antigen held constant at 50 pM and incubated with 3-to 5-fold serial dilutions of antibody starting at 10 nM. Antibodies (20 nM in PBS) were coated onto standard bind MSD-ECL plates overnight at 4° C. or at room temperature for 30 min. Plates were then blocked for 30 min with shaking at 700 rpm, followed by three washes with wash buffer (PBSF+0.05% Tween 20). SET samples were applied and incubated on the plates for 150s with shaking at 700 rpm followed by one wash. Antigen captured on a plate was detected with 250 ng/mL sulfotag-labeled streptavidin in PBSF by incubation on the plate for 3 min. The plates were washed three times with wash buffer and then read on the MSD Sector Imager 2400 instrument using 1× Read Buffer T with surfactant. The percent free antigen was plotted as a function of titrated antibody in Prism and fit to a quadratic equation to extract the KD. To improve throughput, liquid handling robots were used throughout MSD-SET experiments, including SET sample preparation.

Binder | Kd
B1 | 1.11 nM
B2 | 1.56 nM
B3 | 1.41 nM
B4 | 1.84 nM
B5 | 1.28 nM
B6 | 1.82 nM
B7 | 0.304 nM
B8 | 1.35 nM
B9 | 3.39 nM
B10 | 1.85 nM
B11 | 0.445 nM
B12 | 0.388 nM

These binders were tested against T4, human monomeric His tagged CD33 protein (human, UniProt P20138 18-259) (assay: ForteBio BLI or MSD-SET, IgG, monomeric antigen;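 also: BLI: antibodies captured on AHQ sensors, 100 nM antigen association 5 min, dissociation 5 min, 1:1 fit. MSD-SET: antigen fixed at 50 pM, antibody titrated, quadratic fit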).
T4 construct: also called hCD33-His
T4 sequence (P20138 18-259 limits assumed): as above

Binder | Kd
B1 | 5.76 nM
B2 | 7.12 nM
B3 | 6.24 nM
B4 | 7.47 nM
B5 | 3.49 nM
B6 | 6.55 nM
B7 | 0.958 nM
B8 | 5.87 nM
B9 | 21.1 nM
B10 | 8.78 nM
B11 | 1.97 nM
B12 | 1.57 nM

What follows are binders tested against T3, human CD33 Fc fusion protein (assay: RBC adhesion to plate-bound CD33-Fc; antibody 1.0 ug/ml;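 also: red blood cells adhering to plate-coated CD33-Fc after 1 h antibody pretreatment, then 1 h at room temperature, bound cells read as peroxidase activity after lysis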).

Binder | Percent RBC Binding to CD33
B1 | 9.8%
B2 | 7.6%
B3 | 12.3%
B4 | 17.8%
B5 | 80.8%
B6 | 8.77%
B7 | 9.4%
B8 | 7.69%
B9 | 8.42%
B10 | 10.1%
B11 | 9.95%
B12 | 15.2%

The binders below were run against T1, mouse CD33 Fc fusion protein (assay: ForteBio BLI or MSD-SET).

Binder | binding result
B1 | no binding (tested: 100 nM)
B2 | no binding (tested: 100 nM)
B3 | no binding (tested: 100 nM)
B4 | no binding (tested: 100 nM)
B5 | no binding (tested: 100 nM)
B6 | no binding (tested: 100 nM)
B7 | no binding (tested: 100 nM)
B8 | no binding (tested: 100 nM)
B9 | no binding (tested: 100 nM)
B10 | no binding (tested: 100 nM)
B11 | no binding (tested: 100 nM)
B12 | no binding (tested: 100 nM)

Each binder was assayed against T2, human CD33 (assay: flow cytometry, human primary dendritic cells;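 also: binding of anti-CD33 antibodies (10 ug/ml, 1 h on ice) to human primary dendritic cells, detected with a PE-labelled secondary antibody, reported as flow cytometry MFI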).

Binder | DC MFI
B1 | 1520
B2 | 1030
B3 | 1230
B4 | 1120
B5 | 1120
B6 | 2020
B7 | 1700
B8 | 1750
B9 | 1050
B10 | 1790
B11 | 1650
B12 | 1960

Each binder was assayed against T2, human CD33 (assay: flow cytometry, human primary macrophages;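 also: binding of CD33 antibodies at 10 µg/ml to human primary macrophages, 1 h on ice, detected with PE-labelled secondary antibody by flow cytometry, reported as MFI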).

Binder | Macrophage MFI
B1 | 715
B2 | 795
B3 | 792
B4 | 1080
B5 | 746
B6 | 883
B7 | 730
B8 | 711
B9 | 771
B10 | 877
B11 | 912
B12 | 926

What follows are binders tested against T3, human CD33 Fc fusion protein (assay: RBC adhesion to plate-bound CD33-Fc; antibody 0.5 ug/ml;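 also: Plate-coated CD33-Fc preincubated 1 h with antibody, then red blood cells added for 1 h at room temperature, adherent cells lysed and quantified via peroxidase activity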).

Binder | Percent RBC Binding to CD33
B1 | 14.5%
B2 | 13%
B3 | 13.8%
B4 | 6.34%
B5 | 76.5%
B6 | 15.3%
B7 | 12.5%
B8 | 17.2%
B9 | 13.8%
B10 | 11.3%
B11 | 11.5%
B12 | 19.2%

Each binder was assayed against T2, human CD33 (assay: flow cytometry, human primary T cells;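 also: binding of anti-CD33 antibodies at 10 ug/ml to human primary T cells, 1 h on ice, detected with PE-labelled secondary antibody, read as flow cytometry MFI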).

Binder | T cell MFI
B1 | 262
B2 | 231
B3 | 246
B4 | 182
B5 | 35.7
B6 | 206
B7 | 205
B8 | 229
B9 | 242
B10 | 187
B11 | 207
B12 | 198
